Measured values as given in US20190144556A1 (published 2019).

Legend:
recombinant human TNFR2 = target: T1, recombinant human TNFR2 (human, UniProt P20333 23-257, limits assumed); experiment: SPR (BIACORE 3000), biotinylated antibody captured on streptavidin, recombinant human TNFR2 injected
T1 construct: also called tumor necrosis factor receptor 2; full-length target protein
T1 sequence: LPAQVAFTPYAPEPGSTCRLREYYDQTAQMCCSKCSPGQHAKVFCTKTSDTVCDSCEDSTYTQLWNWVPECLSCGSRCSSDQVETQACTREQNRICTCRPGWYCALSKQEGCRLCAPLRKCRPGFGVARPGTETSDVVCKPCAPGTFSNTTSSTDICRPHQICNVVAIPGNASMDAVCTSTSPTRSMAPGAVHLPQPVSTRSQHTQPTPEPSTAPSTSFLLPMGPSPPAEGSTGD
Description: The affinities of antagonistic TNFR2 antibodies for recombinant human TNFR2 were measured using BIACORE™ Analysis Services (Precision Antibody). Briefly, the antibody was biotinylated at a 5:1 stoichiometric ratio using biotinyl-LC-LC-[…] (Thermo-Fisher) in PBS. Excess biotinylation reagent was removed by centrifugation chromatography and the biotinylated antibody was captured on 3000 RU of streptavidin surface to a level of 100 RU. […] Analysis of the kinetics of antigen binding was performed at a flow of 60 μL/min with 2 min injections. Antibodies were injected at a concentration of 1 mg/ml to the final capture of 100 RU. The instrument used was BIACORE™ 3000 with the BioCap chip (GE Healthcare). Double reference method was used for analysis. Reference channel contained the identical level of streptavidin.

[1] = target: T2, peptide fragment defined by residues 130-149 of SEQ ID NO: 7 within human TNFR2 (KQEGCRLCAPLRKCRPGFGV) (human); experiment: peptide binding; assay not given
T2 peptide: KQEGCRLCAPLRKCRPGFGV

[2] = target: T3, linear peptide containing amino acids 128-155 of SEQ ID NO: 7 within human TNFR2 (human); experiment: ELISA, linear peptide coated at 1 µg/well, antibody 0.1 µg/well
T3 construct: Linear peptide purchased from GenScript and coated on the plate
T3 peptide: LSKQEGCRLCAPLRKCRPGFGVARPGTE
Description: (§1) ELISA was also used to determine linear epitopes present on the extracellular surface of TNFR2. Linear peptides corresponding to various regions within the TNFR2 primary sequence were purchased from GenScript (Piscataway, N.J.), diluted in coating buffer and placed on Immulon 4HBX Flat Bottom Microtiter Plates (Thermo Scientific) at a concentration of 1 μg/well. Primary TNFR2 antagonistic antibodies (0.1 μg/well) were incubated with substrates. Secondary antibodies against rodent IgG were used to detect the primary antibodies. Absorbance was measured using the SPECTRAMAX® 190 Absorbance Plate Reader and analyzed with SoftMax Pro 6.3 (Molecular Devices).

[3] = target: T4, linear peptide containing amino acids 112-139 of SEQ ID NO: 7 within human TNFR2 (human); experiment: as above
T4 construct: Linear peptide purchased from GenScript and coated on the plate
T4 peptide: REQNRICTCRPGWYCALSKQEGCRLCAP
Description: as §1

B1: antagonistic TNFR2 antibody TNFRAB1 (antibody, V domains shown)
VH: EVQLQESGGGLVKPGGSLKLSCAASGFTFSSYVMSWVRQTPEKRLEWVATISSGGSYTYYPDSVKGRFTISRDNAKNTLYLQMSSLRSEDTAMYYCARQRVDGYSSYWYFDVWGAGTAVTVSS
VL: DIVLTQSPAIMSASPGEKVTITCSASSSVYYMYWFQQKPGTSPKLWIYSTSNLASGVPVRFSGSGSGTSYSLTISRMEAEDAATYYCQQRRNYPYTFGGGTKLEIKR
notes: Murine monoclonal antibody, full-length IgG; For SPR the antibody was biotinylated and captured on streptavidin; also called TNFR2 antagonist 1
- Kd (recombinant human TNFR2): ~44.4 pM
- koff (recombinant human TNFR2): 0.000221 s⁻¹
- kon (recombinant human TNFR2): 4.98e+06 M⁻¹ s⁻¹
- fold greater affinity than for the peptide fragment defined by residues 48-67 of SEQ ID NO: 7 (…, SEQ ID NO: 18) [1]: 40 fold
- binding result [2]: binds
- binding result [3]: binds
